We go through one molecule from patent US20210155910, “IMPROVED REVERSE TRANSCRIPTASE AND METHODS OF USE” (YALE UNIVERSITY, published 2021).

The target of this series is T1, E.r. maturase (MarathonRT) WT (Eubacterium rectale).
T1 chain: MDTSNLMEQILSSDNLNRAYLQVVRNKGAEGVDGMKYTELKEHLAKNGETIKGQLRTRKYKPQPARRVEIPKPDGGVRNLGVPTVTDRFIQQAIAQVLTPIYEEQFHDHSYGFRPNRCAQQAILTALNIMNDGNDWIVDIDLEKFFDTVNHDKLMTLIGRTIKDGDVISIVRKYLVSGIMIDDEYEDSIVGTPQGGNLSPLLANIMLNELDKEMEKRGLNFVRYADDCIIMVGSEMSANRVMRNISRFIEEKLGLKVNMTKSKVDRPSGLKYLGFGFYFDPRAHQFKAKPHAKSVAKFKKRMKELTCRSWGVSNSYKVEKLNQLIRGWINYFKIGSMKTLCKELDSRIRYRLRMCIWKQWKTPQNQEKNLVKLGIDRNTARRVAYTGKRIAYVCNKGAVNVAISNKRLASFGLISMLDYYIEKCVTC
Kind of series: indirect: D4A at 16:1 raises primer incorporation on RepA D3 from 84.1% to 93.0%; Tris pH 8.3, 200 mM KCl, 2 mM MgCl2, 0.6 M trehalose. As to conditions: tags: N-terminal 6xHis-SUMO, cleaved; hairpin. The text has this:
The surface of E.r. maturase is enriched with positively charged amino acids, to which primers used for reverse transcription non-specifically binds, and thus the efficiency of primer utilization is compromised. To reduce the non-specific binding, D4A helix (FIG. 12A, originated from E.r. Group II intron) was used in the reaction buffer to block the positively charged residues on the surface of E.r. maturase, attempting to further improve the performance of E.r. maturase in the already optimized buffer (50 mM Tris pH 8.3, 200 mM KCl, 2 mM MgCl₂, 5 mM DTT and 0.6 M trehalose).

B1: D4A helix of E.r. group II intron (ssRNA)
RNA: GUCUCGUAUUGCAGAAAUGACAACAUCUGCCGUAACCAAUCGGGUAAAAGGUGGUCAAAUCAAGCGAGAC
Consider B1, for which the binding result was “binds”.
